What was measured:
GST-tagged Atg8a-WT = GST-tagged Atg8a-WT (UniProt Q9W2S2); assay: GST-pulldown, quantified band intensity; details: GMAP truncated form (1-490 aa); N = 3; parent: est. 1.6 (est. ± 0.18 SD); read off a plot
[1] = biological target: His-tagged GMAP (truncated form, 1-490 aa); assay: GST-pulldown, quantified band intensity; details: His-GMAP truncated form (aa 1-490); N = 3; parent: est. 3.0 (est. ± 0.7 SD); read off a plot

UniProt Q9W2S2, sequence (Q9W2S2 entry or part of it): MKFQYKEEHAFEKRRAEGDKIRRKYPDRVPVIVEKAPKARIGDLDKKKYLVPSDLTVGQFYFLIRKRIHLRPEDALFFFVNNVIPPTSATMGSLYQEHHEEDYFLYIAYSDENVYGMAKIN

Substance	response (GST-tagged Atg8a-WT)	response [1]
His-tagged GMAP (truncated form, 1-490 aa) F322A; V325A	1	–
GST-tagged Atg8a-WT (from UniProt Q9W2S2) K48A; Y49A	–	1
